Results published in the supplement of paper PMC10724198.
± gives the standard deviation of the averaged measurements.

System: Saccharomyces cerevisiae
Test: protein stability index of tFT-peptide fusion (C-terminal peptide) (PSI (0-1 scale)); higher = more stable (slower turnover)
Conditions: genetic background: wild type; temperature: 30 C
Procedure: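 MPS profiling in S. cerevisiae of the yeast C-terminome library: the last 12 aa of each annotated ORF are fused to the C-terminus of a sfGFP-mCherry timer, after a GGGS linker. Cells are FACS-sorted into 8 mCherry/sfGFP bins and deep-sequenced. PSI runs from 0 (unstable) to 1 (stable); wild type and das1Δ backgrounds, two technical replicates each.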

Sequence | protein stability index
LKRVVTKAMSSR [SSB1 C-terminal 12 aa] | 0.6864 ± 0.0039
LKSGEKESNASK [SDC1 C-terminal 12 aa] | 0.652 ± 0.013
LLCFRPTRGCGP [YCL041C C-terminal 12 aa] | 0.687 ± 0.013
LLDAIELYQRHK [HEM4 C-terminal 12 aa] | 0.6704 ± 0.0026
LLEDLRSRIDLD [MLO50 C-terminal 12 aa] | 0.744 ± 0.087
LLHTVMNENKLP [LST7 C-terminal 12 aa] | 0.687 ± 0.054
LLILLVLFSKFK [VTI1 C-terminal 12 aa] | 0.302 ± 0.0073
LMESEREARRLR [RPS28A C-terminal 12 aa] | 0.6762 ± 0.0022
LMKLFKSSKFSK [GEM1 C-terminal 12 aa] | 0.694 ± 0.077
LMVPDPWYREGN [FAB1 C-terminal 12 aa] | 0.721 ± 0.031
LNDLSNVRHSKT [HER1 C-terminal 12 aa] | 0.675 ± 0.022
LNNLSMERSIRL [GIP3 C-terminal 12 aa] | 0.666 ± 0.014
LNRKWYTRFFFP [MNN10 C-terminal 12 aa] | 0.702 ± 0.035
LPIWDPMGALAK [LAP3 C-terminal 12 aa] | 0.739 ± 0.06
LPKPAGWQNHIG [KTR1 C-terminal 12 aa] | 0.68 ± 0.009
LPNTISSETFLK [SCEI C-terminal 12 aa] | 0.702 ± 0.018
LPQSTLQENQLS [SKN7 C-terminal 12 aa] | 0.622 ± 0.028
LQVSQEFTTKTQ [NUP82 C-terminal 12 aa] | 0.709 ± 0.048
LRIVACNSKKSE [TOA2 C-terminal 12 aa] | 0.649 ± 0.022
LRSCDLKRKSKK [YLR302C C-terminal 12 aa] | 0.68 ± 0.028
LSDLHIKEAKID [OGG1 C-terminal 12 aa] | 0.568 ± 0.021

Sequence | protein stability index
LSDLRAWTLKVA [YDR491C C-terminal 12 aa] | 0.329 ± 0.0064
LSDYLSHDFASC [YNL040W C-terminal 12 aa] | 0.694 ± 0.04
LSFFGILKYCFL [TSC3 C-terminal 12 aa] | 0.618 ± 0.027
LSIAAGVGFALV [GAS1 C-terminal 12 aa] | 0.653 ± 0.0083
LSKKTSGTHTTH [YBR182C-A C-terminal 12 aa] | 0.6949 ± 0.005
LSQRAWATKKPI [YJL028W C-terminal 12 aa] | 0.732 ± 0.077
LSRYTRVLLMFM [YBR178W C-terminal 12 aa] | 0.455 ± 0.014
LSSVKVRQLRNM [RBH2 C-terminal 12 aa] | 0.205 ± 0.0043
LSTWDARTPILD [GPI2 C-terminal 12 aa] | 0.703 ± 0.0087
LTALLETVNKYR [GCG1 C-terminal 12 aa] | 0.682 ± 0.014
LTTISLYLMLKL [YGL262W C-terminal 12 aa] | 0.351 ± 0.0079
LVAIDPRSEAYC [YMR324C C-terminal 12 aa] | 0.671 ± 0.012
LVKHTYKRSSSS [VBA1 C-terminal 12 aa] | 0.656 ± 0.019
LVSNSDTNIVWP [YMR247W-A C-terminal 12 aa] | 0.712 ± 0.015
LVSQRITGPGVF [ASI2 C-terminal 12 aa] | 0.681 ± 0.0099
LWVTLLPEFTNF [YBR121C-A C-terminal 12 aa] | 0.75 ± 0.029
LYFLVKSFLSIV [HMX1 C-terminal 12 aa] | 0.282 ± 0.12
MEDEDMVDVIID [ESC2 C-terminal 12 aa] | 0.7232 ± 0.0017
MGVVAAVGVALL [ECM33 C-terminal 12 aa] | 0.642 ± 0.0081
MHSNFQNLFNLK [CLB5 C-terminal 12 aa] | 0.707 ± 0.026
MKSKKIDIKGQK [THP3 C-terminal 12 aa] | 0.665 ± 0.018

Sequence | protein stability index
MSLRKYVSVCSM [YHL006W-A C-terminal 12 aa] | 0.513 ± 0.0063
MVTNDGFGSTVL [YLR379W-A C-terminal 12 aa] | 0.734 ± 0.029
NDDDEDDDDFFD [SDD2 C-terminal 12 aa] | 0.6947 ± 0.0056
NDLITYLKKACE [CYC1 C-terminal 12 aa] | 0.683 ± 0.011
NDSDGTILIPDI [ZDS2 C-terminal 12 aa] | 0.713 ± 0.041
NDSEPESEYQQE [CUB1 C-terminal 12 aa] | 0.713 ± 0.0081
NEERINSKIFKS [RCF2 C-terminal 12 aa] | 0.69629 ± 0.00022
NENDFNFINWEG [FLO8 C-terminal 12 aa] | 0.7071 ± 0.0051
NENLSNELQPSL [AME1 C-terminal 12 aa] | 0.759 ± 0.072
NEQFDHKFDETL [APL4 C-terminal 12 aa] | 0.671 ± 0.01
NFEKPCLIQDGK [FMP48 C-terminal 12 aa] | 0.706 ± 0.033
NFTIHRPLNNGR [YDL062W C-terminal 12 aa] | 0.734 ± 0.027
NFTTNEYFIHTS [YNL226W C-terminal 12 aa] | 0.737 ± 0.018
NGEIMTCWEWKE [HEH2 C-terminal 12 aa] | 0.686 ± 0.019
NGINNSSATYKI [ULA1 C-terminal 12 aa] | 0.71 ± 0.038
NGLWEQEKTEKR [YKR041W C-terminal 12 aa] | 0.733 ± 0.061
NGNNVASLNTKK [TAF12 C-terminal 12 aa] | 0.664 ± 0.011
NGYFGYAPGHYP [OPT2 C-terminal 12 aa] | 0.708 ± 0.031
NILPMTYLLKKK [DPI34 C-terminal 12 aa] | 0.6405 ± 0.0054
NILVIVYELLLG [YOS1 C-terminal 12 aa] | 0.203 ± 0.013
NINGTTAAVDVN [PAP1 C-terminal 12 aa] | 0.658 ± 0.01

Sequence | protein stability index
NKTNNKKKHGKK [CLU1 C-terminal 12 aa] | 0.713 ± 0.024
NLEFETEHNVTN [NDC80 C-terminal 12 aa] | 0.708 ± 0.013
NLELGGLNMDFL [PGD1 C-terminal 12 aa] | 0.708 ± 0.047
NLLRFIVGVDVL [YDR426C C-terminal 12 aa] | 0.638 ± 0.0082
NNDDSANDLIDR [CCH1 C-terminal 12 aa] | 0.681 ± 0.02
NNYNLWFRLSSS [ECL1 C-terminal 12 aa] | 0.668 ± 0.055
NPADYLLEFGSG [RTG3 C-terminal 12 aa] | 0.72 ± 0.029
NPFEYENFINIE [YOR263C C-terminal 12 aa] | 0.721 ± 0.052
NPVGVPNDDHHH [COX4 C-terminal 12 aa] | 0.668 ± 0.022
NQFSQPPSNVEF [SCD6 C-terminal 12 aa] | 0.697 ± 0.019
NQYANNLNLIDM [YAP1801 C-terminal 12 aa] | 0.672 ± 0.029
NSDRLSPMEIYN [SPO14 C-terminal 12 aa] | 0.6799 ± 0.0022
NSGSAATDSPFN [STS1 C-terminal 12 aa] | 0.674 ± 0.034
NSIDIGSRLSLM [PEX1 C-terminal 12 aa] | 0.68911 ± 4.9e-05
NSKVMNIKALDH [MRPL10 C-terminal 12 aa] | 0.6725 ± 0.0055
NSLTSLSIYAFL [YEL018C-A C-terminal 12 aa] | 0.685 ± 0.022
NSNKKKGFKSRR [DRS1 C-terminal 12 aa] | 0.732 ± 0.0088
NTANRIIEELLK [UBC1 C-terminal 12 aa] | 0.67 ± 0.032
NTMGKSGRHNIT [YOR282W C-terminal 12 aa] | 0.685 ± 0.032
